Measured values: publication PMC2911444 (Journal of molecular biology, 2008)

Assays:
Experiment in all cases: cryo-EM structure
[1] = target: pentameric vertex complex of CIV (vertex protein) (Chilo iridescent virus (CIV))
[2] = target: zip protein (CIV minor capsid protein) (Chilo iridescent virus (CIV))
cryo-EM structure = target: the molecule itself

pentameric vertex complex of CIV (vertex protein) (natural protein)
stoichiometry N [1]: 5

zip protein (CIV minor capsid protein) (natural protein)
stoichiometry N [2]: 2

B1: P50, the CIV major capsid protein (MCP) (natural protein)
chain: MSISSSNVTSGFIDIATKDEIEKYMYGGKTSTAYFVRETRKATWFTQVPVSLTRANGSANFGSEWSASISRAGDYLLYTWLRVRIPSVTLLSTNQFGANGRIRWCRNFMHNLIRECSITFNDLVAARFDHYHLDFWAAFTTPASKAVGYDNMIGNVSALIQPQPVPVAPATVSLPEADLNLPLPFFFSRDSGVALPTAALPYNEMRINFQFHDWQRLLILDNIAAVASQTVVPVVGATSDIATAPVLHHGTVWGNYAIVSNEERRRMGCSVRDILVEQVQTAPRHVWNPTTNDAPNYDIRFSHAIKALFFAVRNTTFSNQPSNYTTASPVITSTTVILEPSTGAFDPIHHTTLIYENTNRLNHMGSDYFSLVNPWYHAPTIPGLTGFHEYSYSLAFNEIDPMGSTNYGKLTNISIVPTASPAAKVGAAGTGPAGSGQNFPQTFEFIVTALNNNIIRISGGALGFPVL
stoichiometry N (cryo-EM structure): 3
